Test results taken from article PMC11079029 (2024).

Target: PRPF40A WW12 (tandem WW domains, residues 141-236) (human, UniProt O75400 141-236)
Assay: ITC

Chain of PRPF40A WW12 (tandem WW domains, residues 141-236) (O75400 141-236): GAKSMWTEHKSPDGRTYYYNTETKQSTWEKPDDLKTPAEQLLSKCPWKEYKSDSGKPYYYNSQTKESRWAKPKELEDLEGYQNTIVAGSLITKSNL

Row | Binder | Kd [µM]
1 | GAMSGSPPPPPPPPPPSGSN [GB1-polyproline peptide P10] | 28.6
2 | GAMSGSPPPPPPPPPPPPPPPPSGSN [GB1-tagged polyproline peptide P16] | 3.35
